From the supplement of paper PMC12764529
± gives the half width of the 95% confidence interval.

Test: folding stability dG unfold (combined trypsin and chymotrypsin); higher = more stable
Method: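 Folding stability of de novo designed mini-proteins (<80 aa, no Cys; designed by TrROS, TrMRF, ProteinMPNN and the joint model) was measured by cDNA display proteolysis with trypsin and chymotrypsin. Each protease was used at 11 concentrations in a threefold dilution series plus a no-protease condition. K50 was inferred by Bayesian fitting of sequencing counts, and dG unfold was derived against a sequence-predicted unfolded-state K50 (Tsuboyama et al. method). Sequences shown include variable-length N-terminal GS-type padding (SAGGSAGG...) inside a display construct carrying a PA tag. Rows were kept only if the AF2 dimer inter-PAE was >15, to exclude likely homo-oligomers.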

| Sequence | folding stability dG unfold [kcal/mol] |
| --- | --- |
| SAGGPPIMLRIKHPGPDQREKIKEIAQDYPIEPVNPTPGEHEFRFNGPEQVNRLQDIAEKNGWKIEISAGGS [r16_88_TrROS] | < -1 |
| SAGMPELVEFPFPIPPEFPDIPPETLAKLIAEELNEEEFSVEVKSYDPEKPIVTLTVTKDGKPVAEFTDSAG [r5_80_TrMRF] | < -1 |
| SAGMTIPVTSPEEARQVAEELAPEVGKEVTIEEAPPSVSTDNLPSNAIVLVNPDSGVRYVATIKEPDHHSAG [r5_173_JUSTAS] | < -1 |
| SAGGSAGGSAGGSKKKFKVKVIEKKPTTFPDGGVLVDYKVEIPETGALFDLKLTYTGEASAGGSAGGSAGGS [r4_94_TrMRF] | < -1 |
| SAGSYTVDVSYRVPVRLSPAGAVEVPVEVELKRYLPDGVPLGEEEIEEEEEKLAEEIAKELAEALAPLSAGG [r19_389_JUSTAS] | < -1 |
| SAGGSAGGSALKINKLLKEGYEVEVTPPDGKKYVLKKGDSAKKPKEKFNLPENAKIKIKPLSAGGSAGGSAG [r3_216_TrMRF] | < -1 |
| SMTYTVTKESSVSPLPDGSPVTSTTTTVTAPTEPVTVTTSTSVTPLSTGTSTTTSTTTTTVPPDDPLAASSA [r9_34_JUSTAS] | < -1 |
| SAGGSAGGSSPSDTVTAELRYVLPDGTPVERTLSLTDLPSSVTPEDTLTLPGPGLRARILAVTGSAGGSAGG [r6_561_JUSTAS] | < -1 |
| SAGGSAGGSAGGWYRIKWPNGHEYPVKVDEIDPDGNIKVEPPNDEEHKFPADGMKIEPLPSAGGSAGGSAGG [r7_823_TrROS] | < -1 |
| SAGGSAGGSAGGRVKKDVTVRYRLTVRNPVTGKTTERTLTVHVPVLVDEEAELPPLSEVSAGGSAGGSAGGS [r10_1026_TrMRF] | < -1 |
| SAGGGPEVVETVETPATETEVSRLPNGELLVTTTTQVTTFVRVGDELRRERVETVTTTEIVSPEELGSAGGS [r16_109_JUSTAS] | < -1 |
| SAGGSGGSTTPTFEEHVITGPLPVEIKVKKTTLNVTGSSAPSTTTTTTFYDPSGKKLSTKTTTTSSSAGGSA [r2_215_JUSTAS] | < -1 |
| SAGGSAGGSEGKEVVVVPAVGVPPEAVRRALEPLGIRTRVVPVPPVRPFRAADPGRVYYTPVGSAGGSAGGS [r12_80_TrMRF] | < -1 |
| SAGGSAGGSLSLSSNPLVTDPETGEVVYPAVADPVGIATAQWPDSTSYTPMPPNVTRVVRPGEASAGGSAGG [r6_627_JUSTAS] | < -1 |
| SAGGSATIEEILKEIAEPHGAEPEVDPNSGVIEVDFPNGQEHTINVDDGKPIKIKYNPPGRMYIEISAGGSA [r15_256_TrROS] | < -1 |
| SAGGSAGGSAVIVIPASVVEEKKEKIELKLEDETEYEVEVTTEKVGDEPIAVLKLIPKNIPSSAGGSAGGSA [r18_447_JUSTAS] | < -1 |
| SAGGMVVEEEPTKTVVEEVVPLPGGSPVRRITEEVLLPDGSVASRTTVFRPPGEREEETSLDPVPPEASAGG [r13_21_JUSTAS] | < -1 |
| SAGGDWIPFRIKQYDPKDGKPKREWPIQYNPEDGMMQIRPPDGKKHEFPMPMQEILENLPPGFEIEPSAGGS [r16_543_TrROS] | < -1 |
| SAGGSAGGSADPQKVKEIAEKLQEKGYTVDVDRGPDSWTIRVENPKSGGKKKHKIDDPEDVLSAGGSAGGSA [r18_278_TrROS] | < -1 |

| Sequence | folding stability dG unfold [kcal/mol] |
| --- | --- |
| SAGGSAGGMKKEKFGDSIRYTFPVDPNTSVEEIKKEIEKIPGVKDISKVKITPSPSNKLLVYVKSAGGSAGG [r6_516_JUSTAS] | < -1 |
| SAGGSAGGSAGGQIRDPDGRKWIRVKGASPNKIKDELSELNPNVEIITNPDPNEMWIRIPSAGGSAGGSAGG [r7_370_TrROS] | < -1 |
| SAGGSAGGSAGKPYRIKIEFYPPGNGQPMEHTFPVKSPEEAVNNLEKSFPNYQIRVDVVESAGGSAGGSAGG [r17_428_TrROS] | < -1 |
| SAGGSAGGSAGMSTTIEITDPNLSKEEIKKRIREELGPDVKVTSITEETPDTLKATIVKKSAGGSAGGSAGG [r11_580_JUSTAS] | < -1 |
| SAGGSAGGSGVKAILDALPPDYTVTVEEEPSGDSYTITVTHPDGASPTLRIDGGGRGELRKALSAGGSAGGS [r12_174_TrMRF] | -0.845 ± 0.74 |
| SAGGSAGGSAGEIEIEFEPGEEFLDFIKNLPGPIESIEIEPIDPDKVRARLKLNIPEDLASAGGSAGGSAGG [r11_143_TrMRF] | < -1 |
| SAGGDDFRVERFHPGEPREPREIDGDADDLLEELPPNDSYVHIEFKDDGGKKRIQMDTPEDLKNFIRDSAGG [r13_299_TrROS] | < -1 |
| SAGGPMVTWRIKFPGKKIEVMWNPDQMNVNIYDPDKPKEVPIPMPPGEPPTADDILDELKKDGFKIEPSAGG [r13_687_TrROS] | < -1 |
| SAGGSAGGSAGPESRTITLEDPGSLEEAIERALATLPPDTTVTVTFGDEPVELNAATLRALSAGGSAGGSAG [r3_50_JUSTAS] | < -1 |
| SAGGSAGGSVVIPESVISNMKEEEIRELIKKNPKPVLLVTENPEVRKKAEEIFKKEGYPLVVGSAGGSAGGS [r12_97_TrMRF] | < -1 |
| SAGMMVLVRNKNGETVPLEDMTEEQLKNMDIEEVEILPPPEIKVEEEVKVDENGNLTVKKKIEIKIEFSAGG [r19_232_TrROS_Hall] | < -1 |
| SAGPPNDVKPIEIPFKMENGSNFRAEIWRDPGDGKVFVPIEYPNPWHRKRMQNWARELAEEHGIDRVEPSAG [r5_99_TrROS] | < -1 |
| SAGGSAGGSAGGPPPSLPYELDKKVIEKLVKYPEDKLKPVEIKEIETSLFNPLTGTWLDSAGGSAGGSAGGS [r10_248_JUSTAS] | < -1 |
| SAGGPKIEVDVKHQRTPDGMYRMRVTAVVPGNGRKIKITMPMPPDDPSPMPKMAKSIAKELANDPGLKSAGG [r13_968_TrROS] | < -1 |
| SAGGMNMYLRVEQYRKKPNGEPEKRELSIPFPPNEPVEEIADELQKDNPYIKVEIYSPGTGKQQTITISAGG [r13_663_TrROS] | < -1 |
| SAGGSITISMPWNDPEKAAKALEEAFGVDVPPKVERDPGNGWYTITLPNLGRKIQIDGNKVKIEPPSAGGSA [r2_205_TrROS] | < -1 |
| SAGGASVPVEPRLDASGRERVRATLEIRPTLPNGTRTSRAVPVEFASRAELRAFIAARAPTADAVLLSAGGS [r16_652_JUSTAS] | < -1 |
| SAGGSAGGSAGMEIKPVKVKAIDPENPKPVAEFEVEVLPDKIIIPKEFAEKVPEDHVEVESAGGSAGGSAGG [r11_725_TrMRF] | < -1 |
| SAGGSAGGMPPDTYVTEVVTTTSNVLGGKDIFRTIVKTTKILPVIEHPAGDGFTLVPPDTPGLESAGGSAGG [r6_405_JUSTAS] | < -1 |

| Sequence | folding stability dG unfold [kcal/mol] |
| --- | --- |
| SAGKIKEIEMDPPHNQMTLELPEKGRKITINPNMGHLDIEPPDGKPREVPVPNPSDMKEAIKKVLKELKSAG [r5_467_TrROS] | < -1 |
| SAGGGSKIIEVPVIVEPDEDLGKVAEEIAKKIFPENEKVIVKVEKFENSYRIEIFNPEDGKPIIEGEGSAGG [r13_724_TrMRF] | < -1 |
| SAGSFEYEFENGSSNRVEVDPENKEVKVEYEPKEGKLIAALPEKGVVLVPIKDKKVEEAAKEVIEKLKKSAG [r5_447_TrMRF] | < -1 |
| SAGGMSPDATITENLVTDSEEEALAKLLADPSVAEVKPLGVKPDKTKEGKPVIIVPVELRIPADGVRLSAGG [r19_221_JUSTAS] | < -1 |
| SMYYVATVIRKKKDGGPYLGPEVRIVESPEEAEEIALEPAPERDYVVELKVEEVPLEELENPEKIKELLESA [r9_864_TrMRF] | < -1 |
| SAGGSAGGSAGDIDIKVEYNKENGMYRVRASFPDGKEVPIWMPPGQTPEEAKDQAKELLKSAGGSAGGSAGG [r17_161_TrROS] | < -1 |
| SAGGSAGGSEPVPLKVKARFGDPGEEFEADIDIPKEALEGEALTPEQIKEALEALFPDVEIEGSAGGSAGGS [r20_221_TrMRF] | < -1 |
| SAGGPMPPGQPVNIHIEIENPNGNERTIPVPGPVGDPDWFKEIAEKLKEEGWKIKKIHPGNGVIEIKSAGGS [r8_497_TrROS] | < -1 |
| SAGGPGYWRIKIYPKDTGKPHEFPIPLDQIRKVDPKNNKIEISFPNGPTIKIPDPEDIKAVQIEPWPSAGGS [r8_111_TrROS] | < -1 |
| SAGGSAGGSAGGKKQTLVIRSDNKPIPIEYDDDNIKISNPNGKKQEIPPEDLPPDGIEPVSAGGSAGGSAGG [r7_748_TrROS] | < -1 |
| SAGGSAGGSAGMIVRPVTVTIIDPTNSTPVKTFEALELPDELVIPEEVAKQFSPENVLVRSAGGSAGGSAGG [r11_725_JUSTAS] | < -1 |
| SAGGSKVPLDDFDKVTIGVDPKTGKTTASIYYPSDGSTVTFPGKEIPEVLASNPNIKTVETEPLPGSAGGSA [r2_159_JUSTAS] | < -1 |
| SAGGSAGGSAGGADVPVAELEARGLGREALIAELGEDVTVTTEEHAPGAPVYRLTPLASSAGGSAGGSAGGS [r10_855_JUSTAS] | < -1 |
| SAGGSAGGSMFMVKINNGKEIPIPPEDLPPGETVEELADNIPPGMRNIEIYNWDGEEQEIPIDSAGGSAGGS [r20_161_TrROS] | < -1 |
| SAGGSAGGSAGGSAMVYRTEVLVESEELPPPGVGGRLRREGEKVIVRKAPPEALEELGRSAGGSAGGSAGGS [r4_274_JUSTAS] | < -1 |
| SAGGSAGGSAGMKVREITGPPDDAKELLDENPDGITSIAIEPHPKNGQYRITFFDQGPPKSAGGSAGGSAGG [r17_79_TrROS] | < -1 |
| SAGGSAGGSAGGPELGEIEPGPDGYLYVNLKVELPVELPGPDGKGTGPVEGTVRLKVGLSAGGSAGGSAGGS [r10_92_TrMRF] | < -1 |
| SAGGSAGGSAPLVENPVPLYVPEEEAVPLAEEIRKKLTKGGLKKIVFEVVPPEEAGIPPDEPLSAGGSAGGS [r12_93_JUSTAS] | < -1 |
| SAGGSAGGSAGSTVKITVKGKTITVPKGAKVKLKNGKTFKAGESLESLSPEEIVKVEKVPSAGGSAGGSAGG [r17_511_TrROS_Hall] | < -1 |
